Patent US20120121688A1, “PREVENTATIVE OR THERAPEUTIC AGENT AND METHOD FOR IMMUNE DISEASE” (Rinken, priority 2006, published 2012)

B1: recCryj1/2 protein: His-tagged recombinant fusion protein of Cryj1 mature protein and Cryj2 mature protein, SEQ ID NO:9 (protein)
chain: MAHHHHHHSAALEVLFQGPSDNPIDSCWRGDSNWAQNRMKLADCAVGFGSSTMGGKGGDLYTVTNSDDDPVNPAPGTLRYGATRDRPLWIIFSGNMNIKLKMPMYIAGYKTFDGRGAQVYIGNGGPCVFIKRVSNVIIHGLHLYGCSTSVLGNVLINESFGVEPVHPQDGDALTLRTATNIWIDHNSFSNSSDGLVDVTLSSTGVTISNNLFFNHHKVMLLGHDDAYSDDKSMKVTVAFNQFGPNCGQRMPRARYGLVHVANNNYDPWTIYAIGGSSNPTILSEGNSFTAPNESYKKQVTIRIGCKTSSSCSNWVWQSTQDVFYNGAYFVSSGKYEGGNIYTKKEAFNVENGNATPQLTKNAGVLTCSLSKRCRKVEHSRHDAINIFNVEKYGAVGDGKHDCTEAFSTAWQAACKKPSAMLLVPGNKKFVVNNLFFNGPCQPHFTFKVDGIIAAYQNPASWKNNRIWLQFAKLTGFTLMGKGVIDGQGKQWWAGQCKWVNGREICNDRDRPTAIKFDFSTGLIIQGLKLMNSPEFHLVFGNCEGVKIIGISITAPRDSPNTDGIDIFASKNFHLQKNTIGTGDDCVAIGTGSSNIVIEDLICGPGHGISIGSLGRENSRAEVSYVHVNGAKFIDTQNGLRIKTWQGGSGMASHIIYENVEMINSENPILINQFYCTSASACQNQRSAVQIQDVTYKNIRGTSATAAAIQLKCSDSMPCKDIKLSDISLKLTSGKIASCLNDNANGYFSGHVIPACKNLSPS
modifications: His tag

Key:
B220+ cells (B cells) = experiment: Cytokine production by whole spleen cells co-cultured with B220+ cells (B cells) from spleen of administered mice (ELISA); type: cell-based, BDF1 mice; conditions: B220+ cells from mice given 2 μg α-GalCer/mouse i.p., added to whole spleen cells; FIG. 1
Method: Aqueous α-GalCer or αGC liposome (International Publication WO2005/120574) at 2 μg α-GalCer/mouse was intraperitoneally administered to BDF1 mice, and after 24 hours, spleen was removed. The spleen was homogenized with a slide glass to prepare a cell suspension. Subsequently, anti-CD11c antibody magnetic beads (Miltenyi) were added thereto and CD11c^+ cells (DC) were prepared using a magnet. B220^+ cells (B cells) were prepared using anti-B220 mAb magnetic beads (Miltenyi) from the remaining cells which had not been bound to the magnet. Then, 2.5×10^5 whole spleen cells from the normal BDF1 mouse and 1×10^5 DC or 3×10^5 B cells derived from the spleen in the BDF1 mouse administered with aqueous α-GalCer or αGC liposome, suspended in 200 μL of culture medium were added in one well in a 96-well U bottom culture plate, and cultured in an incubator containing 5% CO2 at 37° C. Levels of cytokines, IFN-γ, IL-4 and IL-10 in culture supernatants after 24, 48 and 72 hours were measured by ELISA (FIG. 1).

[1] = system: natural type Cryj1-specific and recCryj1/2-specific antibody titers; experiment: In vivo antibody production by immunization with recCryj1/2 protein or natural type Cryj1; design: species or system BALB/c×DBA/2F1 (BDF1) mice
Method: BALB/c×DBA/2F1 (BDF1) mice (female, 8 weeks of age, five mice in one group, Charles River) were intraperitoneally immunized with 10 μg of purified Cryj1 (natural type Cryj1, Hayashibara Biochemical Laboratories Inc.) derived from the cedar pollen, or 5 μg or 10 μg of the recCryj1/2 protein mixed with 2 mg of aluminium hydroxide gel adjuvant (RIKEN) at the start of the experiment (0day) and on the 14th day. The boost immunization with 1 μg of natural type Cryj1 or 5 μg or 10 μg of the recCryj1/2 protein was given to each mouse on the 41st day. Furthermore, on the 81st day, the boost immunization with 1 μg of natural type Cryj1 mixed with 2 mg of aluminium hydroxide gel was given to all mice. Blood samples were collected from orbital venous plexus on the 13th, 28th, 55th, 76th and 95th days, and levels of natural type Cryj1-specific antibody titers and recCryj1/2-specific IgE antibody titers were measured. […] The recCryj1/2-specific IgE antibody titers on the 76th day were increased in mice immunized with the recCryj1/2 fusion protein (FIG. 8). Meanwhile, on the 28th and 55th day, natural type Cryj1-specific IgG1 and IgG2a antibody titers were increased in both mice immunized with natural type Cryj1 and recCryj1/2 (FIG. 9).

[2] = system: natural type Cryj1-specific IgE antibody; experiment: Inhibitory capacity of recCryj1/2 protein for in vivo IgE antibody production; design: species or system BDF1 mice; conditions: FIG. 10
Method: BDF1 mice (female, 8 weeks of age, Charles River) were intraperitoneally immunized with 5 μg of purified Cryj1 (natural type Cryj1, Hayashibara Biochemical Laboratories Inc.) derived from the cedar pollen mixed with 2 mg of aluminium hydroxide gel adjuvant (RIKEN) at the start of the experiment (0day) and on the 14th day. On the 50th day, the boost immunization with 1 μg of natural type Cryj1 was given. Meanwhile, the blood samples were collected from the orbital venous plexus on the 14th, 29th and 57th days, and the levels of the natural type Cryj1-specific IgE antibody in serum were measured. Subsequently, on the 99th day, the levels of the natural type Cryj1-specific IgE antibody were measured in all mice, and the mice were divided into three group (5 mice in one group) so that average values of antibody titers were equal among the groups. On the 106th, 113th and 120th days, the recCryj1/2 protein (0.2 μg), the recCryj1/2 protein (2 μg), or saline was administered three times, and further the boost immunization with 1 μg of natural type Cryj1 was given on the 133rd day. The blood samples were collected from the orbital venous plexus on the 140th and 160th days, and the levels of the natural type Cryj1-specific IgE antibody in serum were measured.

Molecule | IFN-γ production (B220+ cells (B cells)) | IL-4 production (B220+ cells (B cells)) | IL-10 production (B220+ cells (B cells)) | natural type Cryj1-specific IgG1 antibody titers ([1]; 28th and 55th day, FIG. 9) | natural type Cryj1-specific IgG2a antibody titers ([1]; 28th and 55th day, FIG. 9) | recCryj1/2-specific IgE antibody titers ([1]; 76th day, FIG. 8) | increase of the natural type Cryj1-specific IgE antibody after immunization with adjuvant and natural type Cryj1 on the 81st day ([1]; 94th day, mice earlier immunized with 5 or 10 μg, FIG. 7) | natural type Cryj1-specific IgE antibody titers ([1]; days 28, 55 and 76, i.p. immunization with aluminium hydroxide gel days 0 and 14, boost day 41, FIG. 7) | natural type Cryj1-specific IgE antibody titers versus saline group ([2]; 127th day, 0.2 or 2 μg administered on days 106, 113, 120 to Cryj1-sensitized mice) | natural type Cryj1-specific IgE antibody titers after the boost immunization (133rd day) ([2]; 160th day, increased in saline group)
CCCCCCCCCCCCCCCCCCCCCCCCCC(=O)N[C@@H](CO[C@H]1O[C@H](CO)[C@H](O)[C@H](O)[C@H]1O)[C@H](O)[C@H](O)CCCCCCCCCCCCCC [aqueous α-GalCer, α-galactosylceramide] | not detected | not detected | not detected | – | – | – | – | – | – | –
B1 | – | – | – | increased | increased | increased | scarcely observed | not increased at all | higher | decreased
